Reference: paper PMC6138639, “The ZZ-type zinc finger of ZZZ3 modulates the ATAC complex-mediated histone acetylation and gene activation” (Nature Communications, 2018)
pKd: −log10 of the molar value.

Biological target: ZZZ3 ZZ domain (aa 800–903), GST cleaved (human) (UniProt Q8IYH5)
Assay: other fluorescence titration; tryptophan fluorescence; 1.0 µM ZZZ3 ZZ (aa 800–903) with increasing histone peptide; 25 °C; 20 mM Tris–HCl pH 7.2, 150 mM NaCl, 1 mM DTT; triplicates

Chain of ZZZ3 ZZ domain (aa 800–903), GST cleaved (human) (Q8IYH5 800-903): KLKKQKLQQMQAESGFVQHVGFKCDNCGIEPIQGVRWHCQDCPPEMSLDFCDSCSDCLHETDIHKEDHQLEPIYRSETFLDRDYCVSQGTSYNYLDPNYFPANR

pKd | Substance
5.09 | H3K4ac peptide of the tryptophan fluorescence and NMR titration experiments
4.54 | unmodified H3 peptide of the tryptophan fluorescence and NMR titration experiments
